Reference: article PMC5122317

Molecular target: iRFP (Rhodopseudomonas palustris)
Test: SEC

stoichiometry N: 1.92 fold
Substance: iRFP
